Source: US20240116985A1 (published 2024)
Starred links: 1 amine or outer side, 2 acyl side, 3 side chain; linkers in the order of their positions; H or OH if unused. Positions of bridges follow the written chain, without caps; N, C: chain ends. Non-standard residues stand in square brackets, D forms with d. Primed or numbered codes have the meaning given here. *: point of attachment. PyrS2″ = (S)-3-amino-1-((pent-4-en-1-yloxy)carbonyl)pyrrolidine-3-carboxylic acid (stapling residue), C=CCCCOC(=O)N1CC[C@@](N[*:1])(C(=O)[*:2])C1; B5(4) = 2,2-bis(4-pentenyl)glycine = 2-amino-2-(pent-4-en-1-yl)hept-6-enoic acid (stitching residue), C=CCCCC(CCCC=C)(N[*:1])C(=O)[*:2]; B5(5) = 2,2-bis(4-pentenyl)glycine, 2-amino-2-(pent-4-en-1-yl)hept-6-enoic acid (stitching residue), C=CCCCC(CCCC=C)(N[*:1])C(=O)[*:2]; B5(12) = 2-amino-2-(pent-4-en-1-yl)hept-6-enoic acid (two olefin side chains), C=CCCCC(CCCC=C)(N[*:1])C(=O)[*:2]; Phe(3-COOH) = N[C@@H](Cc1cccc(C(=O)O)c1)C(=O)O; 2F3MeF = Cc1cccc(C[C@H](N[*:1])C(=O)[*:2])c1F; Phe(2-Cl) = N[C@@H](Cc1ccccc1Cl)C(=O)O; Bta = N[C@@H](Cc1csc2ccccc12)C(=O)O; Lys(iPr) = CC(C)NCCCC[C@H](N)C(=O)O; αAllylPro = C=CC[C@@]1(C(=O)O)CCCN1; tBuAla = CC(C)(C)C[C@H](N)C(=O)O; 3Thi = N[C@@H](Cc1ccsc1)C(=O)O; Thr(ol) = C[C@@H](O)[C@H](N)CO; PyrS2(4) = not defined here; Prolinol = OC[C@@H]1CCCN1*

T1: B-cat-Halo (beta-catenin HaloTag NanoBRET construct expressed in HEK293 cells) (UniProt P35222 1-781)
T1 sequence (looked up): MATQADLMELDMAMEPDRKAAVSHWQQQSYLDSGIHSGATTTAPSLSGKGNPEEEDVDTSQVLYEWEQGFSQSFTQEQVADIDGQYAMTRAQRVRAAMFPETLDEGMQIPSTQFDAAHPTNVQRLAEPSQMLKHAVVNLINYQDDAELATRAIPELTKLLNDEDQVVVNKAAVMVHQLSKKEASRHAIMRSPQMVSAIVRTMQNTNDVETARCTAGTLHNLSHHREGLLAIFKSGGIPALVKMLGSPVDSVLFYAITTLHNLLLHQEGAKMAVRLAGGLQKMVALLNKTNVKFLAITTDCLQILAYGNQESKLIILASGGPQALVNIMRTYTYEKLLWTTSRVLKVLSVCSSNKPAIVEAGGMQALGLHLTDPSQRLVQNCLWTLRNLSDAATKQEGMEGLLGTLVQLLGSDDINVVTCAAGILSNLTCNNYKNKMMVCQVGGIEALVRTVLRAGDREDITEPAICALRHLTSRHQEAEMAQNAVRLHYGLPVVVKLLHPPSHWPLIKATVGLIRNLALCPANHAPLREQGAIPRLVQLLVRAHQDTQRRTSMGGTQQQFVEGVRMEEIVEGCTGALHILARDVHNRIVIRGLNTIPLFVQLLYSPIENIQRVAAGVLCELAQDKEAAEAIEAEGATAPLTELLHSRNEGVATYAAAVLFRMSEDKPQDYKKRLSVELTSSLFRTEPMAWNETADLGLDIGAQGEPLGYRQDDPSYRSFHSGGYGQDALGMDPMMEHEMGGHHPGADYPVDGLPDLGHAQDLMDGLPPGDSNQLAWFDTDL

T2: Bcat-Halo (UniProt P35222 1-781)
T2 sequence (looked up): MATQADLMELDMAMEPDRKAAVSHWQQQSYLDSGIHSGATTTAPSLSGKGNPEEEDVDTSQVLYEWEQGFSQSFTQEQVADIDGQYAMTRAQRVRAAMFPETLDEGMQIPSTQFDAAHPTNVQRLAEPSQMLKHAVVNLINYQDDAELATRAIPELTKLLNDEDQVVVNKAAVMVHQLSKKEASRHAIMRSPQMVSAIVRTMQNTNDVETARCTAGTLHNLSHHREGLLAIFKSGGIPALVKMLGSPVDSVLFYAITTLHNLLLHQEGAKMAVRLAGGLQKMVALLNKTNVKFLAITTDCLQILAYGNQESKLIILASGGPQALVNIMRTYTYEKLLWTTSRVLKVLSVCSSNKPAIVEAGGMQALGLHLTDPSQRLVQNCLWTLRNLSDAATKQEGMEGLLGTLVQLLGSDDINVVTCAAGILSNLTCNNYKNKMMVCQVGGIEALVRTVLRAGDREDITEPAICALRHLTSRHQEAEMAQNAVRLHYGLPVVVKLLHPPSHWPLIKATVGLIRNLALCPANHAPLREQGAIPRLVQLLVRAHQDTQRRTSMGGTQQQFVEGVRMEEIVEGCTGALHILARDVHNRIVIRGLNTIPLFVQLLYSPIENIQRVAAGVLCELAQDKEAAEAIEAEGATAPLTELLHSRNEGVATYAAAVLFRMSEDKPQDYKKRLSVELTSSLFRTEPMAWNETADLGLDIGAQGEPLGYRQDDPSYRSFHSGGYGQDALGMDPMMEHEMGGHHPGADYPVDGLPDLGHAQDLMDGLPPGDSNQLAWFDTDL

T3: beta-catenin, full-length (Uniprot ID P35222) (Homo sapiens (Human), UniProt P35222 2-781)
T3 construct: tags are not described; also called bCat; B-Catenin
T3 sequence: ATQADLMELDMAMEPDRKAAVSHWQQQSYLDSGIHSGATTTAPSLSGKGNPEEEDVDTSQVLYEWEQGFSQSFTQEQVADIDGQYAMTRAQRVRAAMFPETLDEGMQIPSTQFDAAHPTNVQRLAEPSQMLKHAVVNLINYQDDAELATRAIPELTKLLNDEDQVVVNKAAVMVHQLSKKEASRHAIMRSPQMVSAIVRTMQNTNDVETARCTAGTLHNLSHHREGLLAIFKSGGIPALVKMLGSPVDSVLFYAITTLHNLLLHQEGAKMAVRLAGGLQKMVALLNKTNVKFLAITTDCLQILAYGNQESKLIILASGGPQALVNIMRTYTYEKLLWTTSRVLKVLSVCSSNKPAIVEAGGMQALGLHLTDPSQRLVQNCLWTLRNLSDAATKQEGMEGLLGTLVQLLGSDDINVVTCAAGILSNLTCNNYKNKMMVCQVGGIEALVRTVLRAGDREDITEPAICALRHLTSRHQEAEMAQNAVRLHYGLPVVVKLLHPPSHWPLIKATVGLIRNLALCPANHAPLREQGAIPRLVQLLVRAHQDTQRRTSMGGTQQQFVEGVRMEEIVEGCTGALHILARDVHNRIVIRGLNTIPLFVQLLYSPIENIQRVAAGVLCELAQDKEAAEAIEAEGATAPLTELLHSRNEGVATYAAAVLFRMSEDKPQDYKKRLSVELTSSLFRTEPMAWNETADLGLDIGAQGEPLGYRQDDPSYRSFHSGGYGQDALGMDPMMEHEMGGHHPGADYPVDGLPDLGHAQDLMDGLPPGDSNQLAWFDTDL

B1: I-1902 (peptide)
peptide: Ac-[αAllylPro]D[tBuAla][B5(5)]D[Phe(3-COOH)]SAFL[PyrS2(4)][Phe(2-Cl)][Bta]S-NH2
modifications: staple 1-4, 4-11; not fully specified; printed as Ac-PL3-Asp-Npg-B5-Asp-3COOHF-Ser-Ala-Phe-Leu-PyrS2-2C1F-BztA-Ser-NH2; reading uncertain
B2: I-1903 (peptide)
peptide: Ac-[αAllylPro]D[tBuAla][B5(12)]D[Phe(3-COOH)]AAFS[PyrS2(4)][Phe(2-Cl)][Bta]S-NH2
modifications: staple 1-4, 4-11; not fully specified; printed as Ac-PL3-Asp-Npg-B5-Asp-3COOHF-Ala-Ala-Phe-Ser-PyrS2-2C1F-BztA-Ser-NH2; reading uncertain
B3: I-1905 (peptide)
peptide: Ac-[αAllylPro]D[tBuAla][B5(12)]D[Phe(3-COOH)]AAFL[PyrS2(4)][Phe(2-Cl)][Bta]S[Thr(ol)]
modifications: staple 1-4, 4-11; not fully specified; printed as Ac-PL3-Asp-Npg-B5-Asp-3COOHF-Ala-Ala-Phe-Leu-PyrS2-2C1F-BztA-Ser-Thro1; reading uncertain
B4: I-1906 (peptide)
peptide: Ac-[αAllylPro]D[tBuAla][B5(12)]D[Phe(3-COOH)]AAFL[PyrS2(4)][Phe(2-Cl)][Bta]S-Prolinol
modifications: staple 1-4, 4-11; not fully specified; printed as Ac-PL3-Asp-Npg-B5-Asp-3COOHF-Ala-Ala-Phe-Leu-PyrS2-2C1F-BztA-Ser-Prool; reading uncertain
B5: I-1912 (peptide)
peptide: Ac-[αAllylPro]D[tBuAla][B5(5)]D[Phe(3-COOH)]QAFL[PyrS2(4)][3Thi][Bta]F-NH2
modifications: staple 1-4, 4-11; not fully specified; printed as Ac-PL3-Asp-Npg-B5-Asp-3COOHF-Gln-Ala-Phe-Leu-PyrS2-3Thi-BztA-Phe-NH2; reading uncertain
B6: I-1909 (peptide)
peptide: Ac-[αAllylPro]D[tBuAla][B5(12)]D[Phe(3-COOH)][Lys(iPr)]AFL[PyrS2(4)][3Thi][Bta]F-NH2
modifications: staple 1-4, 4-11; not fully specified; printed as Ac-PL3-Asp-Npg-B5-Asp-3COOHF-iPrLys-Ala-Phe-Leu-PyrS2-3Thi-BztA-Phe-NH2; reading uncertain
B7: I-1911 (peptide)
peptide: Ac-[αAllylPro]D[tBuAla][B5(12)]D[Phe(3-COOH)]KAFL[PyrS2(4)][3Thi][Bta]F-NH2
modifications: staple 1-4, 4-11; not fully specified; printed as Ac-PL3-Asp-Npg-B5-Asp-3COOHF-Lys-Ala-Phe-Leu-PyrS2-3Thi-BztA-Phe-NH2; reading uncertain
B8: I-1910 (peptide)
peptide: Ac-[αAllylPro]D[tBuAla][B5(12)]D[Phe(3-COOH)]HAFL[PyrS2(4)][3Thi][Bta]F-NH2
modifications: staple 1-4, 4-11; not fully specified; printed as Ac-PL3-Asp-Npg-B5-Asp-3COOHF-His-Ala-Phe-Leu-PyrS2-3Thi-BztA-Phe-NH2; reading uncertain
B9: I-1904 (peptide)
peptide: Ac-[αAllylPro]D[tBuAla][B5(12)]D[Phe(3-COOH)]AAFL[PyrS2(4)][Phe(2-Cl)][Bta]N-NH2
modifications: staple 1-4, 4-11; not fully specified; printed as Ac-PL3-Asp-Npg-B5-Asp-3COOHF-Ala-Ala-Phe-Leu-PyrS2-2C1F-BztA-Asn-NH2; reading uncertain
B10: I-2316 (peptide)
peptide: Ac-[αAllylPro]D[tBuAla][B5(4)]D[Phe(3-COOH)][(TfePpz)GlnR]AFL[PyrS2(4)][2F3MeF][Bta]A-NH2
modifications: staple 1-4, 4-11; reading uncertain; also: printed as Ac-PL3-Asp-Npg-B5-Asp-3COOHF-[TfePpz]GlnR-Ala-Phe-Leu-PyrS2-2F3MeF-BztA-Ala-NH2
B11: I-290: Ac-PL3-Asp-Ala-B5-Asp-Asp-Ala-Ala-Phe-Val-S8-Phe-Trp-NH2 (peptide)
peptide: XDAXDDAAFVXFW
modifications: not fully specified; N-terminal Ac; PL3 at 1, B5 at 4, S8 at 11 (olefin-metathesis staples 1-4 and 4-11); C-terminal amide
notes: Stapled (stitched) peptide

Biological target: T1, B-cat-Halo (beta-catenin HaloTag …)
Assay: cell-based or functional assay

Point of comparison: B4, “NanoBRET Abs IC50” value 15.5 µM. Against it:
- B1 — 2-fold lower, 7.7 µM
- B2 — 2.4-fold lower, 6.4 µM
- B3 — 1.6-fold lower, 9.7 µM
- B5 — within 1.5-fold, 11.5 µM
- B6 — higher, > 20 µM
- B7 — higher, > 20 µM
- B8 — within 1.5-fold, 13.8 µM
- B9 — 3.7-fold lower, 4.2 µM

Biological target: T2, Bcat-Halo
Assay: cell-based or functional assay

Point of comparison: B10, “NanoBRET Abs IC50” value 1.6 µM. Against it:
- Ac-[αAllylPro]D[tBuAla][B5(4)]D[Phe(3-COOH)][(4Pippip)GlnR]AFL[PyrS2″][2F3MeF][Bta]A-NH2 (staple 1-4, 4-11) [I-2317] — 12-fold higher, 18.8 µM

Biological target: T3, beta-catenin, full-length (Uniprot ID …)
Assay: fluorescence polarization competition, displacement of 5FAM-TCF4 10-53 from full-length beta-catenin
Description: The plate was incubated protected from light for 60 minutes at 20° C. prior to read. Reads were performed on a CLARIOstar plate reader (BMG Labtech) in duplicate, and data were fitted to a 1:1 binding model with hill slope using an in-house script. All provided concentrations are final concentrations.

B11 showed an IC50 of 3.29 µM.
